PMC8018905
Read-outs that look alike come from different tables or passages of the source.

What was measured:
[1] = target: recombinant angiotensin-converting enzyme 2 (ACE2) (UniProt Q9BYF1); test: electrochemical impedance spectroscopy
[2] = target: recombinant angiotensin-converting enzyme 2 (ACE2) (UniProt Q9BYF1); test: electrochemical impedance spectroscopy; remark: listed apart in the source

Chain of recombinant angiotensin-converting enzyme 2 (ACE2) (Q9BYF1 18-740): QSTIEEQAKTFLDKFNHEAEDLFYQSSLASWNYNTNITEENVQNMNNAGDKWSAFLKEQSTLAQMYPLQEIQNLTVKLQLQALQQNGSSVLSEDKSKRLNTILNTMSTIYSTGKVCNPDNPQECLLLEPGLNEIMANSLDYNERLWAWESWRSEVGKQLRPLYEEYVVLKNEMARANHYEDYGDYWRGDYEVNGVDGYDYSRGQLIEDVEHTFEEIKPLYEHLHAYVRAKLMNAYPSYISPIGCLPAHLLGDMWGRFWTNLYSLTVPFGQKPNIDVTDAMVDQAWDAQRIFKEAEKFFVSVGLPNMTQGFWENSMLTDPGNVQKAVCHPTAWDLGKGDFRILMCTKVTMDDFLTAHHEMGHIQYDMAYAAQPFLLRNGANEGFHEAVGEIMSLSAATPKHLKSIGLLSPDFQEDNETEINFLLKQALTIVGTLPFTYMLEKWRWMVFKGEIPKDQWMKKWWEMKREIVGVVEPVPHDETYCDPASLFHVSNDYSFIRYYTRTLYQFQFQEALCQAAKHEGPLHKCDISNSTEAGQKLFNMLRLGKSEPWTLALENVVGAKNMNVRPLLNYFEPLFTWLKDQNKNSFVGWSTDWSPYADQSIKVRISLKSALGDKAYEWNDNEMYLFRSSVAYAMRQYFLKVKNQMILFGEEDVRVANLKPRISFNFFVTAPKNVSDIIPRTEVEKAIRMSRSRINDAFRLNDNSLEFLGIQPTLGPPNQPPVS

**Q.** Which results are given for “recombinant SARS-CoV-2 S-protein receptor-binding domain (from UniProt P0DTC2) (domain or fragment; other documents disagree on this pair)”?
**A.** EC50 [1]: 1.74 µM; EC50 [2]: 5.1 µM
